Measured values as given in patent US20230144436A1, “MUSCLE TARGETING COMPLEXES AND USES THEREOF FOR TREATING MYOTONIC DYSTROPHY” (Dyne Therapeutics, Inc., priority 2020, published 2023).

Assays:
DMPK [1] = test: DMPK knockdown by anti-TfR1 antibody-oligonucleotide conjugates in NHP myotubes; type: cell-based, non-human primate; conditions: conjugate with control DMPK-ASO, 72 hours, concentration not stated (0.5, 5, 50 nM tested)
Procedure: (§1) The purified complexes were then tested for cellular internalization and inhibition of the target gene, DMPK. Non-human primate (NHP) or DM1 (donated by DM1 patients) cells were grown in 96-well plates and differentiated into myotubes for 7 days. Cells were then treated with escalating concentrations (0.5 nM, 5 nM, 50 nM) of each complex for 72 hours. Cells were harvested, RNA was isolated, and reverse transcription was performed to generate cDNA. qPCR was performed using TaqMan kits specific for Ppib (control) and DMPK on the QuantStudio 7. The relative amounts of remaining DMPK transcript in treated vs non-treated cells was were calculated and the results are shown in Table 14 and FIG. 20.
as §1, with “of” for “of the target gene,”, “in” for “in Table 14 and”, “23.” for “20.”

DMPK [2] = test: DMPK knockdown by anti-TfR1 antibody-oligonucleotide conjugates in DM1 patient myotubes; type: cell-based, human; conditions: for % knockdown of DMPK in cells from human DM1 patients using Antibody-DMPK ASO conjugate: DM1 patient myotubes, conjugate with control DMPK-ASO, 72 hours, concentration not stated (0.5, 5, 50 nM tested); for activity in delivering a payload (DMPK ASO) and achieving DMPK knockdown compared to the control antibody 15G11: conjugates with control DMPK-ASO, in either cyno cells or human DM1 patient cells
Procedure: as §1
as §1, with “of” for “of the target gene,”, “in” for “in Table 14 and”, “23.” for “20.”

hTfR1 = hTfR1 (Homo sapiens, UniProt P02786); test: Binding kinetics of anti-TfR1 antibodies on Carterra LSA, hTfR1; conditions: Carterra LSA at 25 C
Procedure: Selected anti-TfR1 antibodies were tested for their binding affinity to human TfR1 for measurement of Ka (association rate constant), Kd (dissociation rate constant), and KD (affinity). […] The binding experiment was performed on Carterra LSA at 25 C. An anti-mouse IgG and anti-human IgG antibody “lawn” was prepared on a HC30M chip by amine coupling. 59 IgGs (58 mouse mAbs and 1 human mAb) were captured on the chip. Dilution series of hTfR1, cyTfR1, and hTfR2 were injected to the chip for binding (starting from 1000 nM, 1:3 dilution, 8 concentrations).
Binding data were referenced by subtracting the responses from a buffer analyte injection and globally fitting to a 1:1 Langmuir binding model for estimate of Ka (association rate constant), Kd (dissociation rate constant), and KD (affinity) using the Carterra™ Kinetics software. 5-6 concentrations were used for curve fitting.

Chain of hTfR1 (P02786 whole entry): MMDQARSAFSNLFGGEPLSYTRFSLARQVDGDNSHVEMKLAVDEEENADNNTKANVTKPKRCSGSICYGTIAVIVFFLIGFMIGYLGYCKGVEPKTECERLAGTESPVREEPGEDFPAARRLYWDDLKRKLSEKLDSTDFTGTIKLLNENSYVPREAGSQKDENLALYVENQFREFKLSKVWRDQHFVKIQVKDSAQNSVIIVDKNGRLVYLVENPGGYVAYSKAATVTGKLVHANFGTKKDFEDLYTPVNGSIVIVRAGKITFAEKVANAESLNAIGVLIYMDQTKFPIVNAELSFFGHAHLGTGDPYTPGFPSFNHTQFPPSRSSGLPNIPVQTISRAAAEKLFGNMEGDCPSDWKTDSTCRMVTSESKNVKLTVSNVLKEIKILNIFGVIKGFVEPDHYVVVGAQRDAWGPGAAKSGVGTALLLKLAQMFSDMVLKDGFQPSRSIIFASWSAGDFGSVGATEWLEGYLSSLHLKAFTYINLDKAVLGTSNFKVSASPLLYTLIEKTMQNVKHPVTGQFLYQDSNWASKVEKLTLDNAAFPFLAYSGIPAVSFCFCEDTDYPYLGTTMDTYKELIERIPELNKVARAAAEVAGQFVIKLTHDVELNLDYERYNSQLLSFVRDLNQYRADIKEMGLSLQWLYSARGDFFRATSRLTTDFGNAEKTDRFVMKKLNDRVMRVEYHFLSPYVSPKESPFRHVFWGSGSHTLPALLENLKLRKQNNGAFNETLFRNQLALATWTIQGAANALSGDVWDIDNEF

Molecule	% knockdown of DMPK in NHP cells using Antibody-DMPK ASO conjugate (DMPK [1])	% knockdown of DMPK in cells from human DM1 patients using Antibody-DMPK ASO conjugate (DMPK [2])	activity in delivering a payload (DMPK ASO) and achieving DMPK knockdown compared to the control antibody 15G11 (DMPK [2])	dissociation rate constant (koff) (hTfR1)
9-D4 (antibody, V domains shown) VH: QVQLQQSGTELARPGASVKLSCKASGFTFTDYGINWVKQRTGQGLEWIGEIYPSSGNSYYNEKFKAKATLTADKSSSTAYMELRSLTSEDSAVYFCARSTYYGSPIDYWGQGTTLTVSS VL: DIVMTQSHKFMSTPVGDRVSITCKASQDVDTTVAWYQQKPGQSPKLLIYWASTRQIGVPDRFTGSGSGTDFTLTISNVQSEDLADYFCQQYSTYPLTFGGGTKLEIK	42%	62%	superior activity	
9-D04 (antibody, V domains shown) VH: QVQLQQSGTELARPGASVKLSCKASGFTFTDYGINWVKQRTGQGLEWIGEIYPSSGNSYYNEKFKAKATLTADKSSSTAYMELRSLTSEDSAVYFCARSTYYGSPIDYWGQGTTLTVSS VL: DIVMTQSHKFMSTPVGDRVSITCKASQDVDTTVAWYQQKPGQSPKLLIYWASTRQIGVPDRFTGSGSGTDFTLTISNVQSEDLADYFCQQYSTYPLTFGGGTKLEIK				246 µM
8-D15: anti-TfR1 antibody, VH SEQ ID NO: 132, VL SEQ ID NO: 133 (antibody, V domains shown) VH: QVQLKESGPGLVAPSQSLSITCTVSGFSLTSYAITWVRQSPGKGLEWLGLIWTGGGTNYNSALKSRLSISKDNSKSQVFLKMNSLQTDDTARYYCARIYDGYYRYFDVWGTGTTVTVSS VL: RIVLTQTPKFLLVSAGDRVTMTCKASQSVSNDVAWYQQKPGQSPKLLIYYASNRYTGVPDRFTGSGYGTDFTFTISTVQAEDLAVYFCQQDYSSPWTFGGGTKLEIK				257 µM
10-H02 (antibody, V domains shown) VH: EVQLVESGGDLVKPGGSLKLSCAASGFTFSDYGMHWVRQGPEKGLEWVAYINSGSSTIYYADTVKGRFTISRDNAKNTLFLQMTSLRSEDTAMYYCARPGDYDNYAMDYWGQGTSVTVSS VL: DIVMTQSHKFLSTSVGDRVSITCKASQDVSVAVAWYQQKPGQSPKLLIYWAYTRHTGVPDRFTGSGSGTEYTLTISSVQAEDLALYYCQQHYNTPPWTFGGGTKLEIK				342 µM
9-C04 (antibody, V domains shown) VH: EVQLMESGGDLVKPGGSLKLSCAASGFTFSSYGLSWVRQTPDKRLEWVATITSGGSYTYYPDSVKGRFTISRDNARNTLYLQMFSLKSEDTAMYYCALWSLDYWGQGTTLTVSS VL: QIVLTQSPAIMSASPGEKVTMTCSANSSLSYMHWYQQKPGTSPKRWIYDTSELASGVPARFSGSGSGTSYSLTISSMEAEDAATYYCHQRRSYPWTFGGGTKLEIK				575 µM
6-D03 (antibody, V domains shown) VH: QVQLQQPGAELVKPGASVKMSCKASGYTFTRHWITWVKQRPGQGLEWIGDIYPGSGRTNYNEKFKSTATLTVDTSSSTAYMQLSSLTSEDSAVYYCARDGYLYINYFDYWGQGTTLTVSS VL: ENVLTQSPAIMSASPGEKVTMTCSASSSVSFMHWFQQKSSTSPKLWIYDTSKLASGVPGRFSGSGSGSSYSLTISSMAAEDVATYYCFQGSGYPYTFGGGTKLEIK				107 µM
6-D3 (antibody, V domains shown) VH: QVQLQQPGAELVKPGASVKMSCKASGYTFTRHWITWVKQRPGQGLEWIGDIYPGSGRTNYNEKFKSTATLTVDTSSSTAYMQLSSLTSEDSAVYYCARDGYLYINYFDYWGQGTTLTVSS VL: ENVLTQSPAIMSASPGEKVTMTCSASSSVSFMHWFQQKSSTSPKLWIYDTSKLASGVPGRFSGSGSGSSYSLTISSMAAEDVATYYCFQGSGYPYTFGGGTKLEIK	−8%	−5%		
3-A4 (antibody, V domains shown) VH: EVQLQQSGAELVRPGASVKLSCTASGFNIKDDYMYWVKQRPEQGLEWIGWIDPENGDTEYASKFQDKATVTADTSSNTAYLQLSSLTSEDTAVYYCTLWLRRGLDYWGQGTSVTVSS VL: DIVMTQAAPSVPVTPGESVSISCRSSKSLLHSNGYTYLFWFLQRPGQSPQLLIYRMSNLASGVPDRFSGSGSGTAFTLRISRVEAEDVGVYYCMQHLEYPFTFGGGTKLEIK	77%	70%	superior activity	
3-A04 (antibody, V domains shown) VH: EVQLQQSGAELVRPGASVKLSCTASGFNIKDDYMYWVKQRPEQGLEWIGWIDPENGDTEYASKFQDKATVTADTSSNTAYLQLSSLTSEDTAVYYCTLWLRRGLDYWGQGTSVTVSS VL: DIVMTQAAPSVPVTPGESVSISCRSSKSLLHSNGYTYLFWFLQRPGQSPQLLIYRMSNLASGVPDRFSGSGSGTAFTLRISRVEAEDVGVYYCMQHLEYPFTFGGGTKLEIK				195 µM
3-E5 (antibody, V domains shown) VH: EIQMKQSGAELVKPGASVKISCKASGYSFTGYNMNWVKQSHGKSLEWIGNINPYYGSTGYNQKFKGKATLTVDKSSSTAYMQLNSLTSEDSAVYYCARGDYGYDEGTWFAYWGQGTLVTVSA VL: DIVMSQSPSSLAVSAGEKVTMSCKSSQSLLNSRTRKNYLAWYQQKPEQSPKLLIYWASTRESGVPDRFTGSGSGTDFTLTISSVQAEDLAVYYCKQSYNLPFTFGSGTKLEIK	59%	71%	superior activity	
3-E05 (antibody, V domains shown) VH: EIQMKQSGAELVKPGASVKISCKASGYSFTGYNMNWVKQSHGKSLEWIGNINPYYGSTGYNQKFKGKATLTVDKSSSTAYMQLNSLTSEDSAVYYCARGDYGYDEGTWFAYWGQGTLVTVSA VL: DIVMSQSPSSLAVSAGEKVTMSCKSSQSLLNSRTRKNYLAWYQQKPEQSPKLLIYWASTRESGVPDRFTGSGSGTDFTLTISSVQAEDLAVYYCKQSYNLPFTFGSGTKLEIK				10 µM
8-K6 (antibody, V domains shown) VH: QVHLQQPGAELVKPGASVKMSCKASGYTFTSYWITWVKQRPGQGLEWIGDIFPNSGRTNYDEKFKSKATLTVDTSSSTAYMQLSSLTSEDSAVYFCAREGNFGSLDYWGQGTTLTVSS VL: QIVLTQSPAIMSASPGEKVTMTCSANSNLNYMNWYHQKSGTSPKRWIYDTSKLASGVPARFSASGSGTSYSLTISSMEAEDAATYYCQQWSRNPLTFGAGTRLELK	73%	34%	superior activity	
8-K06 (antibody, V domains shown) VH: QVHLQQPGAELVKPGASVKMSCKASGYTFTSYWITWVKQRPGQGLEWIGDIFPNSGRTNYDEKFKSKATLTVDTSSSTAYMQLSSLTSEDSAVYFCAREGNFGSLDYWGQGTTLTVSS VL: QIVLTQSPAIMSASPGEKVTMTCSANSNLNYMNWYHQKSGTSPKRWIYDTSKLASGVPARFSASGSGTSYSLTISSMEAEDAATYYCQQWSRNPLTFGAGTRLELK				10 µM
4-C05 (antibody, V domains shown) VH: QVQLQQSGAELMKPGASVKISCKATGYTFSNYWIEWVKQRPGHGLEWIGEILPGSGSTNYNENFKGKATFTADTSSNTAYMQLSSLTSEDSAVYYCARRGAYGNFHYWGQGTTLTVSS VL: EIVLTQSPALMAASPGEKVTITCSVSSSISSSNLHWYQQKSETSPKPWIYGTSNLASGVPVRFSGSGSGTSYSLTISSMEAEDAATYYCQQWRSYPYTFGGGTKLEIK				48.5 µM
5-H12 (antibody, V domains shown) VH: QIQLQQSGPELVRPGASVKISCKASGYSFTDYCINWVNQRPGQGLEWIGWIYPGSGNTRYSERFKGKATLTVDTSSNTAYMQLSSLTSEDSAVYFCAREDYYPYHGMDYWGQGTSVTVSS VL: DIVLTQSPTSLAVSLGQRATISCRASESVDGYDNSFMHWYQQKPGQPPKLLIFRASNLESGIPARFSGSGSRTDFTLTINPVEAADVATYYCQQSSEDPWTFGGGTKLEIK	88%	57%	superior activity	
